# Data taken from publication PMC2826812 (Biochemistry, 2010).
# How the values were obtained:
# [1] = target: acto-Myo1c^1IQ (pyr.actin-Myo1c^1IQ) (Rattus norvegicus, UniProt Q63355); type: binding
# [2] = target: rabbit skeletal muscle F-actin (rabbit) (UniProt P68135)
# [3] = target: rabbit skeletal muscle F-actin (rabbit) (UniProt P68135); remark: listed apart in the source
molecule,measurement,setting,value
Nc1ncnc2c1ncn2[C@@H]1O[C@H](COP(=O)(O)OP(=O)(O)O)[C@@H](O)[C@H]1O [ADP],Kd,[1],1740 nM
Myo1c^1IQ-G (from UniProt Q63355 1-725) (domain or fragment),"Km for actin of the steady-state actin-activated Mg2+-ATPase, pCa 4.6",[2],0.28 μM
Myo1c^SAH-G (from UniProt Q63355 1-762; D3ZJP6 805-843) (domain or fragment),in vitro motility: speed of actin filaments over surface-held myosin,[3],29 nm/s
